Data taken from article doi:10.1101/2024.08.19.608714 (bioRxiv, 2024).

Target: the molecule itself
Assay: cryo-EM structure

B1: human XPR1 (natural protein)
chain: MKFAEHLSAHITPEWRKQYIQYEAFKDMLYSAQDQAPSVEVTDEDTVKRYFAKFEEKFFQTCEKELAKINTFYSEKLAEAQRRFATLQNELQSSLDAQKESTGVTTLRQRRKPVFHLSHEERVQHRNIKDLKLAFSEFYLSLILLQNYQNLNFTGFRKILKKHDKILETSRGADWRVAHVEVAPFYTCKKINQLISETEAVVTNELEDGDRQKAMKRLRVPPLGAAQPAPAWTTFRVGLFCGIFIVLNITLVLAAVFKLETDRSIWPLIRIYRGGFLLIEFLFLLGINTYGWRQAGVNHVLIFELNPRSNLSHQHLFEIAGFLGILWCLSLLACFFAPISVIPTYVYPLALYGFMVFFLINPTKTFYYKSRFWLLKLLFRVFTAPFHKVGFADFWLADQLNSLSVILMDLEYMICFYSLELKWDESKGLLPNNSEESGICHKYTYGVRAIVQCIPAWLRFIQCLRRYRDTKRAFPHLVNAGKYSTTFFMVTFAALYSTHKERGHSDTMVFFYLWIVFYIISSCYTLIWDLKMDWGLFDKNAGENTFLREEIVYPQKAYYYCAIIEDVILRFAWTIQISITSTTLLPHSGDIIATVFAPLEVFRRFVWNFFRLENEHLNNCGEFRAVRDISVAPLNADDQTLLEQMMDQDDGVRNRQKNRSWKYNQSISLRRPRLASQSKARDTKVLIEDTDDEANT
- stoichiometry N: 2
